Tested on: proteins that co-immunoprecipitated with DUX4-CTD constructs expressed in MB135 myoblasts
Assay: LC-MS of proteins co-immunoprecipitated with DUX4-CTD (Table 1) and western validation
Assay type: binding, human
Parameters: key to 4. mL1dL2 + Dox + IFNG / 4. + IFNG mix / 4. longCTD + Dox + IFNG / 3. + IFNg + Dox longCTD / 3. + Dox longCTD / 3. + IFNG longCTD: peptide-spectrum matches (PSMs) per protein
Details: kind of count not given; for 4. + IFNG mix: LC-MS value per protein co-immunoprecipitated from MB135 myoblasts, + IFNG mix sample (no Dox); for 4. mL1dL2 + Dox + IFNG: LC-MS value per protein co-immunoprecipitated with DUX4-CTD construct mL1dL2 in MB135 myoblasts
Excerpt: As an unbiased method to identify proteins that interact with the C-terminal region of DUX4, liquid chromatography mass spectroscopy (LC-MS) was used to identify proteins that co-immunoprecipitated with DUX4-CTD constructs expressed in MB135 myoblasts. In the first experiment, MB135iDUX4-CTD cells were used, either untreated, treated with doxycycline alone, or with both doxycycline and IFNG. In the second experiment, MB135iDUX4-CTD and MB135iDUX4mL1dL2 cells were used, both treated with doxycycline and IFNG, compared to these two cell lines untreated and combined as a control. Proteins with a minimum of 2 peptide spectrum matches (PSMs) in at least one sample that were identified in both experiments were assigned to one of ten categories (see Methods) to separate candidate interactors from other categories that might be co-purified because of obligate interactions (e.g., proteasome or ribosome) or might be less likely to be physiologically relevant (e.g., cytoskeletal proteins). Candidate interactors were then ranked based on the total PSMs for that protein across all samples.
Centrifugation at 2500 rcf at 4° C. for 5 min pelleted the nuclei, supernatant was discarded, and nuclei resuspended in 1 mL IP buffer pH 7.4 (25 mM Tris-HCl pH 7.5, 175 mM NaCl, 1 mM EDTA, 0.2% NP-40, 5% glycerol) and incubated for 1 hour at 4° C. with rotation then spun at 21000 rcf for 10 minutes at 4° C. to pellet insoluble debris. Protein concentration was determined using the Pierce BCA Protein Assay Kit (ThermoFisher, 23225). An equivalent amount of protein per sample was pre-cleared with Dynabeads Protein G (Invitrogen) bound to mouse IgG (Abcam #131368) for 1 hour at 4° C. with rotation. FLAG-tagged constructs were then immunoprecipitated with Dynabeads Protein G beads coupled to mouse anti-FLAG M2 mAb (Sigma F3165) for 3 hours at 4° C. with rotation. Beads were washed 3× with 1 mL IP buffer and eluted by adding 2× NuPage LDS Sample Buffer (Thermo Fisher, diluted from 4× with PBS) to the beads and heating for 10 minutes at 70° C.
For LC-MS, anti-FLAG immunoprecipitation was performed with beads cross-linked to the anti-FLAG antibody and the proteins competitively eluted with FLAG peptide. Eluted protein samples were electrophoresed into a NuPage 4-12% Bis-Tris gel, excised, and processed by the Fred Hutchinson Cancer Research Center Proteomics Core. Samples were reduced, alkylated, digested with trypsin, desalted, and run on the Orbitrap Eclipse Tribid Mass Spectrometer (Thermo Fisher). Proteomics data were analyzed using Proteome Discoverer 2.4 against a Uniprot human database that included common contaminants using Sequest HT and Percolator for scoring. […] Proteins that were identified in at least one sample from both independent experiments with at least 2 PSMs in one sample were assigned to one of ten categories: 1, candidates; 2, cytoskeletal associated; 3, cytoskeletal; 4, ribosome/translation associated; 5, proteasome associated; 6, membrane or extracellular; ER, golgi, or vesicle associated; 8, lipid metabolism; 9, chaperones; 10, nuclear import or nuclear membrane associated. The proteins in category 1 were further investigated for interactions with DUX4.

Row | Molecule | 4. + IFNG mix | 4. mL1dL2 + Dox + IFNG
1 | TUBB (protein) MREIVHIQAGQCGNQIGAKFWEVISDEHGIDPTGTYHGDSDLQLDRISVYYNEATGGKYVPRAILVDLEPGTMDSVRSGPFGQIFRPDNFVFGQSGAGNNWAKGHYTEGAELVDSVLDVVRKEAESCDCLQGFQLTHSLGGGTGSGMGTLLISKIREEYPDRIMNTFSVVPSPKVSDTVVEPYNATLSVHQLVENTDETYCIDNEALYDICFRTLKLTTPTYGDLNHLVSATMSGVTTCLRFPGQLNADLRKLAVNMVPFPRLHFFMPGFAPLTSRGSQQYRALTVPELTQQVFDAKNMMAACDPRHGRYLTVAAVFRGRMSMKEVDEQMLNVQNKNSSYFVEWIPNNVKTAVCDIPPRGLKMAVTFIGNSTAIQELFKRISEQFTAMFRRKAFLHWYTGEGMDEMEFTEAESNMNDLVSEYQQYQDATAEEEEDFGEEAEEEA | 19 | 56
2 | LMNA (protein) METPSQRRATRSGAQASSTPLSPTRITRLQEKEDLQELNDRLAVYIDRVRSLETENAGLRLRITESEEVVSREVSGIKAAYEAELGDARKTLDSVAKERARLQLELSKVREEFKELKARNTKKEGDLIAAQARLKDLEALLNSKEAALSTALSEKRTLEGELHDLRGQVAKLEAALGEAKKQLQDEMLRRVDAENRLQTMKEELDFQKNIYSEELRETKRRHETRLVEIDNGKQREFESRLADALQELRAQHEDQVEQYKKELEKTYSAKLDNARQSAERNSNLVGAAHEELQQSRIRIDSLSAQLSQLQKQLAAKEAKLRDLEDSLARERDTSRRLLAEKEREMAEMRARMQQQLDEYQELLDIKLALDMEIHAYRKLLEGEEERLRLSPSPTSQRSRGRASSHSSQTQGGGSVTKKRKLESTESRSSFSQHARTSGRVAVEEVDEEGKFVRLRNKSNEDQSMGNWQIKRQNGDDPLLTYRFPPKFTLKAGQVVTIWAAGAGATHSPPTDLVWKAQNTWGCGNSLRTALINSTGEEVAMRKLVRSVTVVEDDEDEDGDDLLHHHHGSHCSSSGDPAEYNLRSRTVLCGTCGQPADKASASGSGAQVGGPISSGSSASSVTVTRSYRSVGGSGGGSFGDNLVTRSY | 4 | 8
3 | CFL1 (protein) MVSPGHGHLRERKELTPHSTNPAAARIWDATYSDGYVRPASGVAVSDGVIKVFNDMKVRKSSTPEEVKKRKKAVLFCLSEDKKNIILEEGKEILVGDVGQTVDDPYATFVKMLPDKDCRYALYDATYETKESKKEDLVFIFWAPESAPLKSKMIYASSKDAIKKKLTGIKHELQANCYEEVKDRCTLAEKLGGSAVISLEGKPL | 1 | 4
4 | TUBB6 (protein) MREIVHIQAGQCGNQIGTKFWEVISDEHGIDPAGGYVGDSALQLERINVYYNESSSQKYVPRAALVDLEPGTMDSVRSGPFGQLFRPDNFIFGQTGAGNNWAKGHYTEGAELVDAVLDVVRKECEHCDCLQGFQLTHSLGGGTGSGMGTLLISKIREEFPDRIMNTFSVMPSPKVSDTVVEPYNATLSVHQLVENTDETYCIDNEALYDICFRTLKLTTPTYGDLNHLVSATMSGVTTSLRFPGQLNADLRKLAVNMVPFPRLHFFMPGFAPLTSRGSQQYRALTVPELTQQMFDARNMMAACDPRHGRYLTVATVFRGPMSMKEVDEQMLAIQSKNSSYFVEWIPNNVKVAVCDIPPRGLKMASTFIGNSTAIQELFKRISEQFSAMFRRKAFLHWFTGEGMDEMEFTEAESNMNDLVSEYQQYQDATANDGEEAFEDEEEEIDG | – | 23
5 | DBN1 (protein) AGVSFSGHRLELLAAYEEVIREESAADWALYTYEDGSDDLKLAASGEGGLQELSGHFENQKVMYGFCSVKDSQAALPKYVLINWVGEDVPDARKCACASHVAKVAEFFQGVDVIVNASSVEDIDAGAIGQRLSNGLARLSSPVLHRLRLREDENAEPVGTTYQKTDAAVEMKRINREQFWEQAKKEEELRKEEERKKALDERLRFEQERMEQERQEQEERERRYREREQQIEEHRRKQQTLEAEEAKRRLKEQSIFGDHRDEEEETHMKKSESEVEEAAAIIAQRPDNPREFFKQQERVASASAGSCDVPSPFNHRPGSHLDSHRRMAPTPIPTRSPSDSSTASTPVAEQIERALDEVTSSQPPPLPPPPPPAQETQEPSPILDSEETRAAAPQAWAGPMEEPPQAQAPPRGPGSPAEDLMFMESAEQAVLAAPVEPATADATEIHDAADTIETDTATADTTVANNVPPAATSLIDLWPGNGEGASTLQGEPRAPTPPSGTEVTLAEVPLLDEVAPEPLLPAGEGCATLLNFDELPEPPATFCDPEEVEGESLAAPQTPTLPSALEELEQEQEPEPHLLTNGETTQKEGTQASEGYFSQSQEEEFAQSEELCAKAPPPVFYNKPPEIDITCWDADPVPEEEEGFEGGD | – | 2
6 | ACTN1 (protein) MDHYDSQQTNDYMQPEEDWDRDLLLDPAWEKQQRKTFTAWCNSHLRKAGTQIENIEEDFRDGLKLMLLLEVISGERLAKPERGKMRVHKISNVNKALDFIASKGVKLVSIGAEEIVDGNVKMTLGMIWTIILRFAIQDISVEETSAKEGLLLWCQRKTAPYKNVNIQNFHISWKDGLGFCALIHRHRPELIDYGKLRKDDPLTNLNTAFDVAEKYLDIPKMLDAEDIVGTARPDEKAIMTYVSSFYHAFSGAQKAETAANRICKVLAVNQENEQLMEDYEKLASDLLEWIRRTIPWLENRVPENTMHAMQQKLEDFRDYRRLHKPPKVQEKCQLEINFNTLQTKLRLSNRPAFMPSEGRMVSDINNAWGCLEQVEKGYEEWLLNEIRRLERLDHLAEKFRQKASIHEAWTDGKEAMLRQKDYETATLSEIKALLKKHEAFESDLAAHQDRVEQIAAIAQELNELDYYDSPSVNARCQKICDQWDNLGALTQKRREALERTEKLLETIDQLYLEYAKRAAPFNNWMEGAMEDLQDTFIVHTIEEIQGLTTAHEQFKATLPDADKERLAILGIHNEVSKIVQTYHVNMAGTNPYTTITPQEINGKWDHVRQLVPRRDQALTEEHARQQHNERLRKQFGAQANVIGPWIQTKMEEIGRISIEMHGTLEDQLSHLRQYEKSIVNYKPKIDQLEGDHQLIQEALIFDNKHTNYTMEHIRVGWEQLLTTIARTINEVENQILTRDAKGISQEQMNEFRASFNHFDRDHSGTLGPEEFKACLISLGYDIGNDPQGEAEFARIMSIVDPNRLGVVTFQAFIDFMSRETADTDTADQVMASFKILAGDKNYITMDELRRELPPDQAEYCIARMAPYTGPDSVPGALDYMSFSTALYGESDL | 9 | 22
7 | CAVIN1 (protein) MEDPTLYIVERPLPGYPDAEAPEPSSAGAQAAEEPSGAGSEELIKSDQVNGVLVLSLLDKIIGAVDQIQLTQAQLEERQAEMEGAVQSIQGELSKLGKAHATTSNTVSKLLEKVRKVSVNVKTVRGSLERQAGQIKKLEVNEAELLRRRNFKVMIYQDEVKLPAKLSISKSLKESEALPEKEGEELGEGERPEEDAAALELSSDEAVEVEEVIEESRAERIKRSGLRRVDDFKKAFSKEKMEKTKVRTRENLEKTRLKTKENLEKTRHTLEKRMNKLGTRLVPAERREKLKTSRDKLRKSFTPDHVVYARSKTAVYKVPPFTFHVKKIREGQVEVLKATEMVEVGADDDEGGAERGEAGDLRRGSSPDVHALLEITEESDAVLVDKSDSD | 7 | 16
8 | WDR1 (protein) MPYEIKKVFASLPQVERGVSKIIGGDPKGNNFLYTNGKCVILRNIDNPALADIYTEHAHQVVVAKYAPSGFYIASGDVSGKLRIWDTTQKEHLLKYEYQPFAGKIKDIAWTEDSKRIAVVGEGREKFGAVFLWDSGSSVGEITGHNKVINSVDIKQSRPYRLATGSDDNCAAFFEGPPFKFKFTIGDHSRFVNCVRFSPDGNRFATASADGQIYIYDGKTGEKVCALGGSKAHDGGIYAISWSPDSTHLLSASGDKTSKIWDVSVNSVVSTFPMGSTVLDQQLGCLWQKDHLLSVSLSGYINYLDRNNPSKPLHVIKGHSKSIQCLTVHKNGGKSYIYSGSHDGHINYWDSETGENDSFAGKGHTNQVSRMTVDESGQLISCSMDDTVRYTSLMLRDYSGQGVVKLDVQPKCVAVGPGGYAVVVCIGQIVLLKDQRKCFSIDNPGYEPEVVAVHPGGDTVAIGGVDGNVRLYSILGTTLKDEGKLLEAKGPVTDVAYSHDGAFLAVCDASKVVTVFSVADGYSENNVFYGHHAKIVCLAWSPDNEHFASGGMDMMVYVWTLSDPETRVKIQDAHRLHHVSSLAWLDEHTLVTTSHDASVKEWTITY | – | 2
